Data on four molecules can be found in patent US20140274782A1, “AFFINITY REAGENTS AND METHODS FOR DETECTION, PURIFICATION, AND PROTEOMIC ANALYSIS OF METHYLATED PROTEINS” (The Board of Trustees of the Leland Stanford Junior …, priority 2013, published 2014).

T1: G9a and GLP (Homo sapiens, UniProt Q96KQ7+Q9H9B1)
T1 sequence (Q96KQ7 2-1210 limits assumed): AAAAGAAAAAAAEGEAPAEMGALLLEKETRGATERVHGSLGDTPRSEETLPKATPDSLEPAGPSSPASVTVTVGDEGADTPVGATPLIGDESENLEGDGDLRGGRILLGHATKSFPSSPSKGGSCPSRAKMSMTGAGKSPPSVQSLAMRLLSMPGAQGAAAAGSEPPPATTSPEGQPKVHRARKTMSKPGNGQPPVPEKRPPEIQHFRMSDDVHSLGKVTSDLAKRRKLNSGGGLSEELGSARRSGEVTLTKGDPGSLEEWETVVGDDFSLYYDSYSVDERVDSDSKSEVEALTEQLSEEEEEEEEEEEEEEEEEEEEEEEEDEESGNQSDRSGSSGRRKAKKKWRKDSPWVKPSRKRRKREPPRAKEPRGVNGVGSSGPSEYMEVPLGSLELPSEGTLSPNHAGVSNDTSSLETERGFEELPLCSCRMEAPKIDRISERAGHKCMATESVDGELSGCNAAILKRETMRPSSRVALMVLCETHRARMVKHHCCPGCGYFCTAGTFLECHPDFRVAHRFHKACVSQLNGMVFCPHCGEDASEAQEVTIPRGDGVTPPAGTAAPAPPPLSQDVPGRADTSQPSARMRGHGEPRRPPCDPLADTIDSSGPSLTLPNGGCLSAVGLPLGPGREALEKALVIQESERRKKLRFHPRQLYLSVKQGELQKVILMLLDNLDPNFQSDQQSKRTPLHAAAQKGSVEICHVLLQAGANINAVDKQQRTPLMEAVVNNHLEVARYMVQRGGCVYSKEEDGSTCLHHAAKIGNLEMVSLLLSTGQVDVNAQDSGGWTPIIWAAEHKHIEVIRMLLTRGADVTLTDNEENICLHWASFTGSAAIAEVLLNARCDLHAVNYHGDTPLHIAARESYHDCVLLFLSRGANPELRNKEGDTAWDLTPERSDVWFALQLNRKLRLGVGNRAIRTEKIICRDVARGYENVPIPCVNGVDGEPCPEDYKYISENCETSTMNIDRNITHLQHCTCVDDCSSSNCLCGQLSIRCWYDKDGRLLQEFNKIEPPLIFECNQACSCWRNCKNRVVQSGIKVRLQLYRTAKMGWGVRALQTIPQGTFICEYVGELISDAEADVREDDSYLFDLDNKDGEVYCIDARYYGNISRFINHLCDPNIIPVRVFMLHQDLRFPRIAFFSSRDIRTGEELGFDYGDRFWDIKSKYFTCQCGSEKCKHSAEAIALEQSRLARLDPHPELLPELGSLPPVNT
T1 sequence (Q9H9B1 2-1298 limits assumed): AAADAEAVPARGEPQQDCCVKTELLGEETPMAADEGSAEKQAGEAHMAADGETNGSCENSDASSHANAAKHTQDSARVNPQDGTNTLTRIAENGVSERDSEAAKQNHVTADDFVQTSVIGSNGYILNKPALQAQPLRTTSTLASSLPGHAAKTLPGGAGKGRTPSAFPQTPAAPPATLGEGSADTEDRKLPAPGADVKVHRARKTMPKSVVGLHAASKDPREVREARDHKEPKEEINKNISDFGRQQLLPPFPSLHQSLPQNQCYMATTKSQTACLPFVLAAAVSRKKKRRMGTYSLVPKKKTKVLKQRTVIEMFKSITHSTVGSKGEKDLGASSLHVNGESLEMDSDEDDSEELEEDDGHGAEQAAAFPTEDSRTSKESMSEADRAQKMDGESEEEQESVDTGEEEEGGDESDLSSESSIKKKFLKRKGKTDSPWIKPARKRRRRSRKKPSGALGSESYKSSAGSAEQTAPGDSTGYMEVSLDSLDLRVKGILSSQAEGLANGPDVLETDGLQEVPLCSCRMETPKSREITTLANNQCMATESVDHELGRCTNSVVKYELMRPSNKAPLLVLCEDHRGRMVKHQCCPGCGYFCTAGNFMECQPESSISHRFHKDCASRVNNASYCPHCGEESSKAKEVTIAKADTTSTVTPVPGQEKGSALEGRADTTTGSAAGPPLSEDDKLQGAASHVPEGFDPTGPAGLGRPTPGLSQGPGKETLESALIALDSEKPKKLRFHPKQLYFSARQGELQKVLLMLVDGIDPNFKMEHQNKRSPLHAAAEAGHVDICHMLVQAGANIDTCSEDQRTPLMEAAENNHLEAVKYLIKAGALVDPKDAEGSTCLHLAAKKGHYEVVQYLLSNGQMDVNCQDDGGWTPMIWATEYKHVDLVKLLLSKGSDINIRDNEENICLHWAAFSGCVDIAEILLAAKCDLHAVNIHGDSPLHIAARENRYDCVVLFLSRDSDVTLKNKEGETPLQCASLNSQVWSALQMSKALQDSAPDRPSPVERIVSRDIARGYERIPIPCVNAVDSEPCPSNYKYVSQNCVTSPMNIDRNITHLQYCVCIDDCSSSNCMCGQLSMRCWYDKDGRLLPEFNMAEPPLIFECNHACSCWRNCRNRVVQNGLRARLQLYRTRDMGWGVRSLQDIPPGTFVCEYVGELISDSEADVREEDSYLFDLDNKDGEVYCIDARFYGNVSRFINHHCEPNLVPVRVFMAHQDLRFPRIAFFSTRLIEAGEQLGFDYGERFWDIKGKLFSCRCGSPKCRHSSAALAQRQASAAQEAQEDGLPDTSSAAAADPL

B1: AMOT (protein, UniProt Q4VCS5 1-1084, looked up)
Angiomotin: MRNSEEQPSGGTTVLQRLLQEQLRYGNPSENRSLLAIHQQATGNGPPFPSGSGNPGPQSDVLSPQDHHQQLVAHAARQEPQGQEIQSENLIMEKQLSPRMQNNEELPTYEEAKVQSQYFRGQQHASVGAAFYVTGVTNQKMRTEGRPSVQRLNPGKMHQDEGLRDLKQGHVRSLSERLMQMSLATSGVKAHPPVTSAPLSPPQPNDLYKNPTSSSEFYKAQGPLPNQHSLKGMEHRGPPPEYPFKGMPPQSVVCKPQEPGHFYSEHRLNQPGRTEGQLMRYQHPPEYGAARPAQDISLPLSARNSQPHSPTSSLTSGGSLPLLQSPPSTRLSPARHPLVPNQGDHSAHLPRPQQHFLPNQAHQGDHYRLSQPGLSQQQQQQQQQHHHHHHHQQQQQQQPQQQPGEAYSAMPRAQPSSASYQPVPADPFAIVSRAQQMVEILSDENRNLRQELEGCYEKVARLQKVETEIQRVSEAYENLVKSSSKREALEKAMRNKLEGEIRRMHDFNRDLRERLETANKQLAEKEYEGSEDTRKTISQLFAKNKESQREKEKLEAELATARSTNEDQRRHIEIRDQALSNAQAKVVKLEEELKKKQVYVDKVEKMQQALVQLQAACEKREQLEHRLRTRLERELESLRIQQRQGNCQPTNVSEYNAAALMELLREKEERILALEADMTKWEQKYLEENVMRHFALDAAATVAAQRDTTVISHSPNTSYDTALEARIQKEEEEILMANKRCLDMEGRIKTLHAQIIEKDAMIKVLQQRSRKEPSKTEQLSCMRPAKSLMSISNAGSGLLSHSSTLTGSPIMEEKRDDKSWKGSLGILLGGDYRAEYVPSTPSPVPPSTPLLSAHSKTGSRDCSTQTERGTESNKTAAVAPISVPAPVAAAATAAAITATAATITTTMVAAAPVAVAAAAAPAAAAAPSPATAAATAAAVSPAAAGQIPAAASVASAAAVAPSAAAAAAVQVAPAAPAPVPAPALVPVPAPAAAQASAPAQTQAPTSAPAVAPTPAPTPTPAVAQAEVPASPATGPGPHRLSIPSLTCNPDKTDGPVFHSNTLERKTPIQILGQEPDAEMVEYLI
B2: CPSF3 (protein, UniProt Q9UKF6 2-684, looked up)
Cleavage and polyadenylation …: SAIPAEESDQLLIRPLGAGQEVGRSCIILEFKGRKIMLDCGIHPGLEGMDALPYIDLIDPAEIDLLLISHFHLDHCGALPWFLQKTSFKGRTFMTHATKAIYRWLLSDYVKVSNISADDMLYTETDLEESMDKIETINFHEVKEVAGIKFWCYHAGHVLGAAMFMIEIAGVKLLYTGDFSRQEDRHLMAAEIPNIKPDILIIESTYGTHIHEKREEREARFCNTVHDIVNRGGRGLIPVFALGRAQELLLILDEYWQNHPELHDIPIYYASSLAKKCMAVYQTYVNAMNDKIRKQININNPFVFKHISNLKSMDHFDDIGPSVVMASPGMMQSGLSRELFESWCTDKRNGVIIAGYCVEGTLAKHIMSEPEEITTMSGQKLPLKMSVDYISFSAHTDYQQTSEFIRALKPPHVILVHGEQNEMARLKAALIREYEDNDEVHIEVHNPRNTEAVTLNFRGEKLAKVMGFLADKKPEQGQRVSGILVKRNFNYHILSPCDLSNYTDLAMSTVKQTQAIPYTGPFNLLCYQLQKLTGDVEELEIQEKPALKVFKNITVIQEPGMVVLEWLANPSNDMYADTVTTVILEVQSNPKIRKGAVQKVSKKLEMHVYSKRLEIMLQDIFGEDCVSVKDDSILSVTVDGKTANLNLETRTVECEEGSEDDESLREMVELAAQRLYEALTPVH
B3: DAZAP1 (protein, UniProt Q96EP5 1-407, looked up)
DAZ-associated protein 1: MNNSGADEIGKLFVGGLDWSTTQETLRSYFSQYGEVVDCVIMKDKTTNQSRGFGFVKFKDPNCVGTVLASRPHTLDGRNIDPKPCTPRGMQPERTRPKEGWQKGPRSDNSKSNKIFVGGIPHNCGETELREYFKKFGVVTEVVMIYDAEKQRPRGFGFITFEDEQSVDQAVNMHFHDIMGKKVEVKRAEPRDSKSQAPGQPGASQWGSRVVPNAANGWAGQPPPTWQQGYGPQGMWVPAGQAIGGYGPPPAGRGAPPPPPPFTSYIVSTPPGGFPPPQGFPQGYGAPPQFSFGYGPPPPPPDQFAPPGVPPPPATPGAAPLAFPPPPSQAAPDMSKPPTAQPDFPYGQYAGYGQDLSGFGQGFSDPSQQPPSYGGPSVPGSGGPPAGGSGFGRGQNHNVQGFHPYRR
B4: HNRNPR (protein, UniProt O43390 2-633, looked up)
Heterogeneous nuclear …: ANQVNGNAVQLKEEEEPMDTSSVTHTEHYKTLIEAGLPQKVAERLDEIFQTGLVAYVDLDERAIDALREFNEEGALSVLQQFKESDLSHVQNKSAFLCGVMKTYRQREKQGSKVQESTKGPDEAKIKALLERTGYTLDVTTGQRKYGGPPPDSVYSGVQPGIGTEVFVGKIPRDLYEDELVPLFEKAGPIWDLRLMMDPLSGQNRGYAFITFCGKEAAQEAVKLCDSYEIRPGKHLGVCISVANNRLFVGSIPKNKTKENILEEFSKVTEGLVDVILYHQPDDKKKNRGFCFLEYEDHKSAAQARRRLMSGKVKVWGNVVTVEWADPVEEPDPEVMAKVKVLFVRNLATTVTEEILEKSFSEFGKLERVKKLKDYAFVHFEDRGAAVKAMDEMNGKEIEGEEIEIVLAKPPDKKRKERQAARQASRSTAYEDYYYHPPPRMPPPIRGRGRGGGRGGYGYPPDYYGYEDYYDDYYGYDYHDYRGGYEDPYYGYDDGYAVRGRGGGRGGRGAPPPPRGRGAPPPRGRAGYSQRGAPLGPPRGSRGGRGGPAQQQRGRGSRGSRGNRGGNVGGKRKADGYNQPDSKRRQTNNQQNWGSQPIAQQPLQQGGDYSGNYGYNNDNQEFYQDTYGQQWK

The first test has as its system 3×MBT domain of L3MBTL1. Briefly: Triple SILAC pull-down, 3xMBT/3xMBTD355N ratio (cytoplasmic, nuclear and chromatin fractions of 293T cells).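 Further: proteins quantified with MaxQuant, requiring at least two unique peptides and quantification in both label directions, normalized to the mean of proteins from a digested loading control.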 The test is classed as binding, human. The following applies: SILAC ratio, pull-down 3xMBT vs 3xMBTD355N; experiment with UNC0638 in heavy SILAC media.
For B1, the “3xMBT/D355N UNC Heavy” value is 2.95 log base 2.
On the same count and under the same terms, for B2 the value was 3.39 log base 2; for B3, 2.92 log base 2; for B4, 3.20 log base 2.

Still in this test, the particulars now being: SILAC ratio, pull-down 3xMBT vs 3xMBTD355N; experiment with UNC0638 in light SILAC media.
In the case of B1, the “3xMBT/D355N UNC Light” value came out at 2.44 log base 2.
In the case of B2, the “3xMBT/D355N UNC Light” value stood at 0.51 log base 2.
B3: the “3xMBT/D355N UNC Light” value was found to be 2.10 log base 2.
On the same count and under the same terms, the same measure for B4: 3.60 log base 2.

Another test deals with T1, G9a and GLP. Briefly: Triple SILAC pull-down after UNC0638 treatment of 293T cells, DMSO/UNC0638 ratio of protein captured by 3×MBT.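 Further: mass spectrometry (Q-Exactive) SILAC quantitation, DMSO/UNC0638 ratio computed after subtracting 3×MBTD355N mutant pull-down background, only proteins with at least twofold 3×MBT over mutant signal considered.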 It counts as cell-based. Further details: endogenous in cells; host or cells: HEK 293T. The conditions noted are these: SILAC ratio DMSO/UNC0638 of protein pulled down with 3xMBT; UNC0638 in heavy SILAC media.
As for B1, the “Relative to UNC0638 UNC Heavy” value is recorded as −0.03 log base 2.
As to B2, the “Relative to UNC0638 UNC Heavy” value is listed as 0.30 log base 2.
The same measure, in the same setting: for B3 the value was 0.01 log base 2; for B4, 0.12 log base 2.

Staying with this test, now noted: SILAC ratio DMSO/UNC0638 of protein pulled down with 3xMBT; UNC0638 in light SILAC media.
B1: the “Relative to UNC0638 UNC Light” value is listed as 0.39 log base 2.
B2: the “Relative to UNC0638 UNC Light” value is recorded as 0.06 log base 2.
The same measure, in the same setting: the same measure for B3: 0.35 log base 2.
Still for that read-out and setting: for B4 the value was 0.24 log base 2.

Staying with this test, now noted: average of UNC Light and UNC Heavy experiments.
With B1, the “Relative to UNC0638 Average” value was determined as 0.18 log base 2.
With B2, the “Relative to UNC0638 Average” value is recorded as 0.18 log base 2.
Still for that read-out and setting: for B3 the value was 0.18 log base 2; for B4, 0.18 log base 2.
